Measured values as given in publication PMC8184781, “A histone H3K4me1-specific binding protein is required for siRNA accumulation and DNA methylation at a subset of loci targeted by RNA-directed DNA methylation” (Nature Communications, 2021).

Target: H4K20me1 peptide (monomethyllysine at K20)
Assay: ITC; Microcal PEAQ-ITC; peptide (about 1.0–1.5 mM) and protein (about 0.8–0.12 mM as printed) in 100 mM NaCl, 20 mM HEPES pH 7.0, 2 mM β-mercaptoethanol; 20 °C
Details: both partners purified

B1: RDM15 Tudor domain (residues 598–662) (domain or fragment, Arabidopsis thaliana, UniProt Q8GUP3 598-662, looked up)
chain: LGQGKASGESLVGSRIKVWWPMDQAYYKGVVESYDAAKKKHLVIYDDGDQEILYLKNQKWSPLDE
notes: A Se-Met labelled form was also made; the structure was solved by SAD, so the crystal may hold the Se-Met protein; also called C-terminal Tudor domain of RDM15; source: E. coli BL21(DE3), purified (HisTrap, ulp1 digestion, second HisTrap, Superdex G75)
Question: For B1, which Kd is on record?
Answer: The Kd was 22.9 µM.
